According to the domain aggregation screens of Martell et al. (2025):

Assay: soluble fraction after stress (log2 fold change); higher = more stays soluble; pooled small domains, quantitative proteomics
Conditions: stress: 75 degC
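Note: 20 min heating vs room temperature control held 20 min.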

HMTAFSEQLIKLRKQKGLSQEQLGAAVGVTRQTVSKWELGDTTPELGKLVQLSDYFQLSIDELVGH
soluble fraction (log2): -0.703

HMTAGTTALNKLQQGMSTQQVQAALGTPSDRTVKESGVELWKYYYPYENMLLYLKFRDGHLVSFGTN
soluble fraction (log2): -0.594

HMTAKQDLDSIYRHLVATRKSIAENPKMVSSIDDPQALIKMLDYAIQYFYTDKRDEALAVLEKNEEQLNFR
soluble fraction (log2): -0.347

HMTALTTEDLERRFYAKTYEGESAQKRLARLEISVFGELRQGRPESDRLHDLNNAVLEKERAALNAGAVG
soluble fraction (log2): 0.063

HMTAMQYVTIKDIADALGISKSSVSRALAGDVHNVSAQTIERVRAKALEMGYLRNNAAVNLR
soluble fraction (log2): -0.413

HMTANDKRNALYRKIEVGRRQLPAMDEVAFRQLLAAEFGVESRKDMSVGQLSRLVNILAEKGAVF
soluble fraction (log2): -0.741

HMTANTLDLTYSQFLENVKNGSVNDVTIRGNNVSGNFSDGRKFKTYAVNDPTLVEKLTKMGVNISAAPL
soluble fraction (log2): 0.405

HMTAPELSVGDYLEYRGKEYKVESLDMDGFITLTDTALEDAPRLISRVTFLTDEFIRSGEYMVIT
soluble fraction (log2): -0.811

HMTAQGDSSDAVQRAITEILRHEDPSHPFSDQQLVIKLRTMDISVSRRTVTKYRKLLHIPSSTHRK
soluble fraction (log2): -3.12

HMTARYQQVEDYIVRRIQDGSWPPGHRLPSEHELVQQFGMSRMTVNRALRDLMQKGRIVRVAGVGSFVAQD
soluble fraction (log2): -1.98

HMTATSKKAAWDEVNKIFPTDYERSAAESERAGYAIFRSTAEGVNAWISDLGDRLEINLPDGKTVNIWIEE
soluble fraction (log2): -0.0996

HMTATVPDSEAGIRLDVYAAALLGVSRAGAQKYIESGAVRVNGLPAPKNRRLESGDVIEAVLPDPE
soluble fraction (log2): 0.194

HMTAVAAEQQAQDAYRQTAANNLNEIQAKYKLPDSESDDFFTFAYERGFTQEDFIDIGLVDKIMGDYV
soluble fraction (log2): 0.19

HMTAVNEHELMNQFKLSLGYANGDDPQTKLSTDEKNDFMRFKEWATAMTKDSKMGKDPDYLKKLAVQWTLK
soluble fraction (log2): 0.278

HMTAYEGLPVTLIIDGRVFQQNLQKMNLSVEWLRLELKKFGVTNLKEVLFASLDTEGKLFYQLKT
soluble fraction (log2): -0.792

HMTDEYYSYIGKTGTTITVLRPAGIAEVEGERLNVVSEGEFIRKGAAILVKEVEGARILVEEVN
soluble fraction (log2): -0.58

HMTDFESYTVRVTATNLNIRKGAGTNFHSAGYIKPGVYTIVEEADGKGATRWGKLKSGMGWISLDYAKK
soluble fraction (log2): -1.04

HMTDGYAMRLERLNSLEEYVLNKGTVSLEDLAERFGVSINTIRRDLNELISRGQIKKVYGGVSSLHD
soluble fraction (log2): -0.252

HMTDIDATSIERAVAKRRHFFLSNIQDLTMKMARRLIEKDLGLAPKHLDAAPFKTRITELVDAVIALGD
soluble fraction (log2): -0.393

HMTDIKYLIADGNDIKHWDTASSSYVKVSELPLTSDKFKIYGDDIYHKERTGIIAASPILKIWSPSAE
soluble fraction (log2): 0.384

HMTDKLIAYSVDGILNVITSEAQSVKVYAIDGRLVRILQLGEGRNEVSGLAKGIYIVDNRKVAV
soluble fraction (log2): -2.71

HMTDLNQIGERIKGLRDALGYSPEKMASILEQKVDDYLAYEEGTKDISLSVLQRIEKEFDIDLSTLLFGT
soluble fraction (log2): -0.333

HMTDRKRDAIVQAAIGEFREHGFNGTSMDRVAAAADVSKRTVYNHFPSKEELFEAILLLMWE
soluble fraction (log2): -1.93

HMTDSISLTLNGDPRPFRAGATVADLVRDIGLDPAKVAVERNLEIVPRSTLENVHLADGDVLEIVHFV
soluble fraction (log2): 0.0689

HMTDTIALRSVIAESGLKYKALAEIMGLSPYTLQMKIDNESEFKASEIDALANALGMDMQQRDSIFF
soluble fraction (log2): -0.536

HMTDVIADMLTRIRNAASSKHQTVDIPSSNLKKEIAKILLEEGYIRDFIEIDDKKQGIIRITL
soluble fraction (log2): -0.692

HMTDYREILRLLSLGLSRTQIADSLNVSRTTVIHTLQRAVAQELDWQTAEGMSDRELVAKLFPV
soluble fraction (log2): -3.95

HMTEAVYMPALQNKTLEEAQRIVEQYDLELEYTYEANAQVEEGRILSQTPQMGVLVERGEKVQAVVSLG
soluble fraction (log2): 1.01

HMTEDELLAQFEEILDGYVGKPGGLIPALQTAQKLFGYLPKRVLQLISMKLDIPYSEVTGVVSFYSFFTTV
soluble fraction (log2): 0.28

HMTEEEEFEKGFEILVNLSHFNRFSVYKEDEYVIVRIADYDFNEYFKVKKSDVGRIAEFLNENIT
soluble fraction (log2): -2.61

HMTEELLNQRKETMLALLNDPTYVPMKLKELAMLLNLSRDQRDELREVMESLEQDGKVILTKRGKYKIP
soluble fraction (log2): -0.261

HMTEELQDMESRIIEAAKRVFVRKGYEATKMSDIALEVGLGRTALHYYFRTKEMLFDAIFGRLMGV
soluble fraction (log2): -0.702

HMTEEPISDGIKKLVEEWENIEGNLIMIFHGIQKHYGYVPRNVAKYVSEAIDVPLTRIYEILTFYNYFTM
soluble fraction (log2): 0.261

HMTEEYAVLWRVARQTLKPEAFDVLWMKYREQLSIAEIAGIMNRSETSVKVMLHRARKNLGTALESS
soluble fraction (log2): -1.75

HMTEKIEWYKEVLELEPNSKVFFPLARMLAEEQRFDEAVAVLEHGLERHGEFLEARLFFIELLHET
soluble fraction (log2): -3.16

HMTEKQYIYSIGDRVNIGTDEFEIVNINEKEVSIADVTFPMLVKQISYEEFDRKVKENPFNDHLII
soluble fraction (log2): -0.112

HMTEKSTRSVPQEHEGKRLDVAAALLFPVYSRSELARRIDAGYLLLNGKGSTPKTKVHELDLIELLEV
soluble fraction (log2): -0.601

HMTELKKTAVDTWVKDLGTEQALAKLDTLAVVKLRRLAREYKAFGIAGRAISKADKGMLLAEFRAYYEN
soluble fraction (log2): -2.08

HMTETSKLTDAKQLLESILSSGEVSYKDIISAAEEYEIGKRTLMSAKALLSIESIKKTDGWYWTLPH
soluble fraction (log2): -0.368

HMTEVPSLSSLKIGDLIFYRNNKGAIAHSAIITSFYNGRPFISQHTFNALNITYVKDWASKMHFIKIW
soluble fraction (log2): 0.0528

HMTEWDDATVKDAVEYFMSVNGRVPTVTDFKKENGLPSHPVIKQRYKINLHEWLNKNFPTYY
soluble fraction (log2): -1.3

HMTFEPVYDENSRILILGTFPSVKSREQQFYYGHPQNRFWKLLAALTGWKVPKTISEKKELLLQNGIA
soluble fraction (log2): -0.208

HMTFFDDLLYQAKAAVDNDPSIKPSLHNRAIIEILYQQGVFNMKNAVEHVAELLEISKNTVYLHLRSVKG
soluble fraction (log2): -1.06

HMTFGEMLQYTNRLKEILESNAPQSIKDRRLANLMTDLEQAYGIPILRDQEFEKENPFLMQLYRTIS
soluble fraction (log2): -2.4

HMTFKDIMENYTISRIENTINSAVVFLDEINAYITIDKTQLPSNLRYDTDSKIMASQIPDDAKIKYFMIYW
soluble fraction (log2): -2.12

HMTFPIDINRADTEQLTALPGIGEVLAKRIIAYREENGSFLSTDELKNVEGIGEKRLEAIVDLITIG
soluble fraction (log2): 0.145

HMTFSDKIRELRKQKGVSQAVVAEYLGITKQAYSLYETGKREPDFDSLLKLAEYFGTDTDSLLY
soluble fraction (log2): -1.52

HMTGEEVLIMLGEKMKLIRNYNGYSQRQIAEILKIERSTYASYETGRNRPDIFAVQRFAKIFNVSVDYIL
soluble fraction (log2): -0.244

HMTGELEVTAAGLSPEKLLNLAAKNHITLSNVKRLSYTQLSFRIGPADYNRLKKLLPEGRYKLNVGSS
soluble fraction (log2): -2.28

HMTGESIPFSKFLSEVDSGRVINVEIQGNNISGLLSDGNKFKTYSPNYPNLVEILSEKEVSIVATPLE
soluble fraction (log2): 0.0122

HMTGGLTQEQISQLRMLTPQQIEQLRQLQPQQVEMLRQLRPEQVMLLTQLEPQQIMAFMRLEPSVIMQL
soluble fraction (log2): -0.261

HMTGGMVTYIIEKGEGFFSLERKFGLSENELIKLNPSLKSGLKSEMQINIPKENYDRYVASS
soluble fraction (log2): -0.45

HMTGIESVKPSSDFTVEGNRIVAGDAEVEVYDLAGRKVNNNNLTTGVYIAKIAGSAESVKVFV
soluble fraction (log2): 0.144

HMTGIQDVPALETRRVGNTFFFDRATDVQVYDLQGRLLQQARKVTSVSIGHLQQGVYVLTDGRASVKVQ
soluble fraction (log2): -1.51

HMTGIQLNDRERAILQHLSDGLTTKAIAERIFLREDTVKWYRKNLLARFEQPIVAALVKWAVLEGLV
soluble fraction (log2): 0.0483

HMTGIVVVDVVGQVGRPGLVSLPAGSRVADAITAAGGATPEADVSLLNQARLVIDGEQIRVPRPGEVIAA
soluble fraction (log2): -0.0555

HMTGKVSHGERKSVLVSLAGSMRARGMSIDAVRAGLYADNEKRFDPPLDERDIEDVLNSAKKWGDP
soluble fraction (log2): -0.352

HMTGMDALIGRRVFVSEEILPGDAGGRVAVDGDSWRAISVGTAKPIPAGTEVRIHGYKSLILEVEPI
soluble fraction (log2): -0.788

HMTGQHFDLEDTDGNLVYEIDSTVPLKTFYIYDAMHTEIFRMTKELLHALPTYRFYLYGEPYGVLKKQ
soluble fraction (log2): -0.192

HMTGRVKWYDATKGFGFVTSDEGGDVFLPKGALPAGVADLKTGQRIEFGVVDSRKGAQALGVK
soluble fraction (log2): 0.352

HMTGSAETRGITLTDEQVTVWAKDGSWANYVYRATDGNWYDGSGRLYYENGGGEWTQAATGEQGS
soluble fraction (log2): 0.126

HMTGSALDATIEKLLDLGSKAGSVTEDEIQIVLKNVDVTDAQLSSIYQFLRDRGVEIVSATEDDD
soluble fraction (log2): 0.371

HMTGVPYLVRVKITDLHIRSGPGTNYASKGFIAPGAYTIVEESTGQGAALWGKLKSGKGWIALGYTEK
soluble fraction (log2): -2.13

HMTHAISKTYAVTGEQLKNGFTLTHTFANGSTRRVDVYPGSRSGKVIAVRNTTDDTTEWIRIVEG
soluble fraction (log2): -0.2

HMTHSEYVGRHGIAATSLRPAGAATIDGSRVDVVTSGEYIEKGTPIEVMTVNGSTVRVKAVPQIP
soluble fraction (log2): 0.203

HMTIDANAIEKMVLDLIGEHPNEWGRYRDGDKKVQGFFVGQIMKATSGQADGKIVNQILSQHAEA
soluble fraction (log2): -0.0337

HMTIELAEGQHFLQISKSGAPMGNVVRDLIIQTLKITNGNQIKAAKILGISRAKLRYRIEQLGINITGKNI
soluble fraction (log2): -2.81

HMTIERVKIKETPTGWLRVRETPDNNGSEIGRANVGEIYELLGSKGEWYHIVYKGKQGFISTKYAEKVL
soluble fraction (log2): -0.999

HMTIGEALLNLRKQLGLNQTEMAANVVSTSFYSKVERNIHDIGTKDLLQILNKHQINATYFFENLN
soluble fraction (log2): -1.82

HMTIHVMEIKSLLPIKILDESQHLVQSFSSKNPTSYNYRLIFSDKSKLENIKKTINENKDVESIEIRYA
soluble fraction (log2): -0.885
